Experiment: soluble on expression in E. coli; label from the status in PepcDB or PDB records

Soluble on expression in E. coli, not soluble:
MGSDKIHHHHHHMSKKQEEIAIKEQRLLSMMEENELEGICLSRAANFAWLTAGSNNRVVWGQETGAAALVIVEGRKFLVAPQNEIERLMLEQVADLGFEPWTYEWYEDRQQAIARLVGNKKIGSDIPLGNWPVIEAELKRLRFSLTDHEVERAEKLAAICSDDLAAVCQAIVPGWSEWNIQVELSNRLLKQGVRASVLLVGADDRTRFKHPLPTLNPVCNYVIIGLVGEQCGLHMALTRSIYFGRVPEALRQNYNCCLAVERTYWENSVVDADSQKVFQQGINAYADLGHPEEWKRHHQGGAIGYAPREFRAGEGRREVMQDRQMLAWNPTVENTKCEDTCLVTPTGLKSMTTVPSWWPTTTVKAGNINFLRPLILEK, MGSDKIHHHHHHMSKLKDYNIDKVIIFNNLSTKTKNQLKEKVKLKRLQKKEILFYEKDSLDSVYILLEGKVSIFKISENGERKVIFILNSGEVINDITLDASKNSTVGCEAFENSIVAYYSIEEFLEIMQNDFQLTKDIISYMERRIRRLYRQLKNSISIKVDKKLAAKLYRLSREFGVCCGEWTLLNVNITVTYLADMLGCKRETVSRMIKVLQKEELIKIDNKGFYVKETELSRYFKNN, MGSDKIHHHHHHMSKSHAVVHSALADEASQHNNTLSWFDITPADQERVRSLAPIADHVGEEIIADFYAHILRFEDAAQQFADDTQIERVKRGQKKYFQELINAELDESYAEERKRIGGIHERAGITPTLYVGSYAYYLQRLSQSILENGKEDPHKLFGLVLSMMKIAHYDMALALETYVEAREKTIEIHERQMRELPTPVLELREGLLLVPVVGALDSHRARTLTMQLLDGIRDTRSRAVVLDITGAVSIDSSVANHLFQAMTAARLMGAKSILAGISPTVAQELFRIGVDTKTFTTARNLQQGIELAASALEAHSKHSV, MGSDKIHHHHHHMSKTLSILVLHRVPFENVGYDQVIDHDLHQVTYLGLASPMSKLPKDLPCHKVVIEQLDLLVDSAVALTQEQGIEFDYIIGVSEYQLFDAALIRERLNIQGPKPHDVLRVRDKLVMKHQVQAAGLHVPRFFELAEVMTQELTGLQQLILKPKDGASSENVIKYADLEALRSAITSSATGIPVLDNDKNFKNFEVEEFVEGPILHLDGIVQGGVIDTFVASTYEGTCLAFAEGEALGSYQIQTEPRLMDWAQAVITALAIDSGAFHLEVIESGERLVFLEIGHRAGGANVVRTFELRTGINLHHANLATQLRLPIHRQEVNTHKSYGWFVFPGHHYDWDKCRLEGHEDIKIHHQMFEWNQLSNEQPLTKHITYQKKEVPAAGIIQGDDSIQVQNFMQRVLQYIQVQEAV, MGSDKIHHHHHHMSKYESEVVVDGFHYLEGPRWYKDALWFVDFYTKGVYRVNDESVAEKIVHVEQQPSGLGWLPDGRMLIVSMKDRKVLRLEDNGELVVHADIWDHCEGHANDMVVAPNGNAYVGNFGFDLMGGADHKQTGLVLVKPDGNSQIVAEGLAFPNGMVISADEKTLIVNELFGNKISQFDINADGTLGEKRDFANFGDLGDEPNLGARIENANILPDGLALDSEGAVWIADTLNQRAVRISEGGEILDIVNTAPDGIFAVALGGQNGKTLFMCAAPDWDEASRTAETKGRMLSTQVKVGHAGTP, MGSDKIHHHHHHMSLIFDIKRYAINDGPGIRITLFMKGCPLSCIWCHNPEGIRNGKDKLYTAKKCLGCGTCLKVCPNGALTLTPEGIITDKQKCVLCGRCAEECPAMAIEISGTEYTAEYLMHEIEKEIPFMDQSGGGVTFCGGEPLLHPEFLIDILKRCGQQGIHRAVDTTLLARKETVDEVMRNCELLLIDLKSMDSTVHQTFCDVPNELILKNIRRVAEADFPYYIRIPLIEGVNADEKNIKLSAEFLASLPRHPEIINLLPYHDIGKGKHAKLGSIYNPKGYKMQTPSEEVQQQCIQILTDYGLKATIGG, MGSDKIHHHHHHMSLKAKLARKFVYAVFPDVRKYTSIKPAFENSPDSPEGRLVPEVVALYGKPGVHILKMALVLPYLVGTAYYARKSVTSVRRNPGKGKKTAPPEFFEELESYAKSLGVLKVGYTKLTPELVFSNRAVLFENAIVLIGEMRKKEIAKAPGVRAGMEVWRTYYRLTRAAYKIAEFLRERGYNAQPDPAVGRSTNFPLLAQKAGLDHIGKHGLLITPENGPSVRIGAVYTDLELPYTDERVREHGWIPHFCDRCNACVRACPAQAIYITPRRENGREVHIDYKRCAVIFSRTLGCSICVKECTFTKGSYEKIKRVHEKIRNR, MGSDKIHHHHHHMSLKTSDVKFKDRIQTQIHDPIMRKAVANAQERIGANRQKMVDELGHWEAWRDHAAQIREHVLNNLDAYLYQLSEKVTANGGQVYFAKTKEDATRYILQVAQANHAKKVVKAKSMVTEEIGMNHVLQQAGIEVIETDLGEYILQLDQDPPSHVVVPAIHKDRYQIRKVLHEKLGYDGPETPEAMTLFIRKKIREDFLSAEVGVTGCNFAVAETGSVCLVTNEGNARMCTTLPKTHIAVMGMERIAPTFEEVDVLITMLARSAVGARLTGYNTWLTGPREAGHVDGPQEFHLVIVDNGRSQILGSAFRDILRCIRCGACINTCPAYRHIGGHGYGSIYPGPIGAVISPLLGGYQDFKELPYACSLCTACDTVCPVHIPLSSLILKHRRVMAESGITPKAEQRFTKLFSYVNSHPMLWKVGMIAGAHAAGWFIKNGKTRIEMGAIGEWTEARDLPDADGESFRSWFKKHQARGKK, MGSDKIHHHHHHMSLNQPPHTRLRHDNPRSPNTFPSRAKVVGAEDLATTSNASTGHGFNLARPVHRNREPATPAPRVVEGANRRRSACEQDISHRHEKIYNWAPAPNTRQGQPTRRLTSRSGPKEREHAARTPRTALQCQRVLALGRVRTCASCGRGSEVLLRGLCPECFDRRYGVVEGLPWELVVDVCTSCGRVRIGHKWLEYATAEEAVGLMLSSMSLKPVHPVERVELEDWALETRLDWRTRVRLRFRANYRDTLFRVSRVIVLRLNPSTCPLCIVRRSGEYDTLVQVRGYRAGEAVEKTLNSLDPREAPIDVVPVRGGVDVYFHHRGAAARFVSRLASTARVRVSRVEHEHVGTSSLGRRRSRKTILVRLEGLTGERGE, MGSDKIHHHHHHMSLPAMDAGIYLEETAPRALIEHNNILDNSVGVYLHGSADAMVRENKIVGDATLRVNERGNGVTVWNAPGAQVVGNDISKGRDGIFSNTSTHNTYKNNRFSDLRFAVHYMYTNDSEISGNISVGNNMGYVLMFSERLKVFDNIAVGSRDQGIMLNYVNYSDIHDNIINKAGKCVFAYNANYDKLSANHFENCQIGIHFTAAIEGTSLHDNSFINNESQVKYVSTRFLDWSEGGHGNYWSDNSAFDLNGDGFGDSAYRPNGIIDQIIWRAPVSRLLMNSPAISIVKWAQAQFPAVLPGGVVDSKPLMKPYAPKIQTRYQAMKDGLLKKVETRQLEWGRAENGSLN, MGSDKIHHHHHHMSLPLRSIHYFVEVARCESFSLAAERLHVSQSAVSHQVALLEGYLGDDLFVRRGRKILLTAVGENYFNEVAGAINAIEGATANVRQYDTRQVKLAVHGSLAVKWLIPALDEFRQRYPNVELTLQMLTQDGNFDTQWADCFITTQPPGMGYQRYHLYDETLKPYCSKALWAEAHRLESAGDLIQYPLLSAISAFASGEPGTDWQRWFKKANLRLPVSARVHHFSHLLLAAEAAKYGQGIALLNEFMTTEQEREESLFELPFHSIQTDDSFYFVYPSSTAKSPGLESLGDWLVALCRTRH, MGSDKIHHHHHHMSLQSGEWREQIDEVDAALIDEFQSDFPIQERPFEAVGDALGVSAGTALDRVKTLRDDGIFRRFGPVLNPPVIGSSTLAAVSAPEDRFDEVAEIINGYRQVNHNYARDHEWNMWFVVTAGSRQRRDEILAEIEERTGCSVLVLPMLTDYYIDLEFPVVNGDRFARESLETTDATATRISEDAAADLSELDRRLLLEIQSGFPLVATPYRDVADAVDADVSEVLSAIKRLQRTGCIKRIGCVVNHIVTGFDNNCMVVWDVPDDALDERGQAVGELPYVTLCYHRPRRPEQDWQYNLFTMIHGREADIVDEKIDELATDHLPYDHGRLYSTETLKQTGARYDDIVGQ

From the DeepSol protein solubility set
